Experimental data: patent US20250011363A1, “OPTIMIZED SHORTENED PEPTIDE THAT BINDS TO ACETYLCHOLINE RECEPTOR, AND USE THEREOF” (SKINMED CO., LTD., priority 2021, published 2025)

Target: acetylcholine receptor (Homo sapiens, UniProt P02708)
Experiment: SPR binding affinity (RU) of optimized 5mer/6mer/7mer peptides, Examples 6-7
Conditions: SPR, peptides tested at 10 μM; 6mer-1 Top sequence (top combinations)
Method in brief: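 Binding response (RU) to the human acetylcholine receptor was measured by SPR. Each 5mer or 6mer library peptide was applied at 10 μM, with sequences drawn from top and bottom amino-acid combinations.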

acetylcholine receptor, sequence (P02708 21-457): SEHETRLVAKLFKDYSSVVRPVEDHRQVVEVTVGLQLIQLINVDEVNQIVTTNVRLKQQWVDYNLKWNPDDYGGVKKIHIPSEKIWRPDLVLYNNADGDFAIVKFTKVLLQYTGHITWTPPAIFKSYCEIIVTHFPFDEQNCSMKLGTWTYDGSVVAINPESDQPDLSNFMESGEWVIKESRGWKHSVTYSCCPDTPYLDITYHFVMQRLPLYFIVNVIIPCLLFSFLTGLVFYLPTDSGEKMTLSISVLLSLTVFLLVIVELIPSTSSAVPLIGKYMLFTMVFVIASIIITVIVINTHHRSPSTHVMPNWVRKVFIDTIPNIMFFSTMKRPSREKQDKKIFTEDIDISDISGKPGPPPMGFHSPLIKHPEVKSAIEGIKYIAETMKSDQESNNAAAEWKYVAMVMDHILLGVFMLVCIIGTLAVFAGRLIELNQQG

Substance | Binding affinity
6mer-1-40 (KRSQYK) | 121 Ru
6mer-1-41 (RKGITK) | 122 Ru
6mer-1-42 (KKRIQR) | 139 Ru
6mer-1-44 (KRQYCK) | 148 Ru
6mer-1-45 (RKGLTK) | 145 Ru
6mer-1-46 (KRLYQR) | 142 Ru
6mer-1-47 (KRRLLK) | 149 Ru
6mer-1-48 (RRWVRR) | 124 Ru
6mer-1-49 (RRWQTR) | 149 Ru
6mer-1-50 (KKVRTR) | 139 Ru
6mer-1-51 (RRVLYK) | 127 Ru
6mer-1-52 (RRRFLR) | 131 Ru
6mer-1-53 (KRVIQR) | 123 Ru
6mer-1-54 (RRRVCK) | 144 Ru
6mer-1-55 (KRSIYR) | 133 Ru
6mer-1-56 (RRGIQR) | 137 Ru
6mer-1-57 (RKQYYK) | 139 Ru
6mer-1-58 (RKSVTR) | 126 Ru
6mer-1-59 (KRLQCK) | 145 Ru
6mer-1-60 (RKSIQK) | 139 Ru
6mer-1-61 (KRSYCK) | 121 Ru
6mer-1-62 (RRWFTK) | 133 Ru

Substance | Binding affinity
6mer-1-63 (KKWVSR) | 148 Ru
6mer-1-64 (RKQFTK) | 154 Ru
6mer-1-65 (KKSRRR) | 121 Ru
6mer-1-66 (KKSISR) | 147 Ru
6mer-1-67 (RRSYTR) | 135 Ru
6mer-1-68 (RKLQLK) | 153 Ru
6mer-1-69 (RKVRRR) | 142 Ru
6mer-1-70 (KKLLYR) | 139 Ru
6mer-1-71 (KRWFYK) | 121 Ru
6mer-1-72 (RKVQLK) | 139 Ru
6mer-1-73 (KKQQQR) | 142 Ru
6mer-1-74 (KKVRLR) | 142 Ru
6mer-1-75 (RRQYQK) | 139 Ru
6mer-1-76 (RRLQLK) | 126 Ru
6mer-1-77 (KKQLRR) | 149 Ru
6mer-1-78 (KKRVSK) | 145 Ru
6mer-1-79 (KRLFCK) | 137 Ru
6mer-1-80 (KRVQQR) | 133 Ru
6mer-1-81 (RRWQLR) | 148 Ru
6mer-1-82 (KKVLYR) | 123 Ru
6mer-1-83 (RRSFLR) | 146 Ru
6mer-1-84 (RRGQTK) | 142 Ru

Substance | Binding affinity
6mer-1-85 (RKRQCK) | 121 Ru
6mer-1-86 (KKWRQK) | 142 Ru
6mer-1-87 (KKQVYK) | 139 Ru
6mer-1-88 (KRWICK) | 121 Ru
6mer-1-89 (RKQRCK) | 142 Ru
6mer-1-90 (KKGISK) | 125 Ru
6mer-1-91 (RKQQCK) | 131 Ru
6mer-1-92 (RRWRLK) | 153 Ru
6mer-1-93 (KRWIRR) | 136 Ru
6mer-1-94 (RKVQQK) | 142 Ru
6mer-1-95 (KKWQTK) | 142 Ru
6mer-1-96 (KRGVRK) | 125 Ru
6mer-1-97 (KKVYLR) | 139 Ru
6mer-1-98 (KRLQCR) | 154 Ru
6mer-1-99 (RKVVYR) | 136 Ru
6mer-1-100 (RKWISK) | 146 Ru
6mer-1-101 (KRWLYR) | 142 Ru
6mer-1-102 (RRRYRR) | 127 Ru
6mer-1-103 (RKRICK) | 122 Ru
6mer-1-104 (KRGFSK) | 121 Ru
6mer-1-105 (KKSISK) | 141 Ru
6mer-1-106 (KRGQLK) | 149 Ru
